Reference: patent US20190330344A1 (F STAR THERAPEUTICS, published 2019)

Molecular target: T1, cynomolgus LAG-3 expressed on DO11.10 cells (cynomolgus monkey, UniProt P18627 24-525 (human entry))
T1 chain: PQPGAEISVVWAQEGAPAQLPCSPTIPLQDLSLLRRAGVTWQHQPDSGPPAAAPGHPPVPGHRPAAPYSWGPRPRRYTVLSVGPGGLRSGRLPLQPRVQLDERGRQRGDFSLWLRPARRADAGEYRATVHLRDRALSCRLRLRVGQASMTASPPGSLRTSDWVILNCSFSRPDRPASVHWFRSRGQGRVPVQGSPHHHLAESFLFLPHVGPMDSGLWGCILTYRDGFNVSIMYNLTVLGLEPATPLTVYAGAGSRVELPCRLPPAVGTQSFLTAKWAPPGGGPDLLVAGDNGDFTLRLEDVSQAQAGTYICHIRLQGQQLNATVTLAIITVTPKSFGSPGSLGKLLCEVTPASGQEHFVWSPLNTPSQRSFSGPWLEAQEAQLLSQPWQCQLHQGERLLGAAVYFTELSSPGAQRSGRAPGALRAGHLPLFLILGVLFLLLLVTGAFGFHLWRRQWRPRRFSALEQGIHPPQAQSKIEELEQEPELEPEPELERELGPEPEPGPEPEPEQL
Assay: cell-based or functional assay

EC50 of mIL-2 release, cynomolgus LAG-3 DO11.10 T cell activation assay: 5.6 nM
B1: FS18-7-9/4420LALA (anti-human LAG-3 Fcab FS18-7-9 in mock mAb^2 format comprising the LALA mutation) (bispecific antibody, human IgG1, kappa, L234A L235A)
heavy: EVKLDETGGGLVQPGRPMKLSCVASGFTFSDYWMNWVRQSPEKGLEWVAQIRNKPYNYETYYSDSVKGRFTISRDDSKSSVYLQMNNLRVEDMGIYYCTGSYYGMDYWGQGTSVTVSSASTKGPSVFPLAPSSKSTSGGTAALGCLVKDYFPEPVTVSWNSGALTSGVHTFPAVLQSSGLYSLSSVVTVPSSSLGTQTYICNVNHKPSNTKVDKKVEPKSCDKTHTCPPCPAPEAAGGPSVFLFPPKPKDTLMISRTPEVTCVVVDVSHEDPEVKFNWYVDGVEVHNAKTKPREEQYNSTYRVVSVLTVLHQDWLNGKEYKCKVSNKALPAPIEKTISKAKGQPREPQVYTLPPSWDEPWGEDVSLTCLVKGFYPSDIAVEWESNGQPENNYKTTPPVLDSDGSFFLYSKLTVPYDRWVWPDEFSCSVMHEALHNHYTQKSLSLSPG
light: DVVMTQTPLSLPVSLGDQASISCRSSQSLVHSNGNTYLRWYLQKPGQSPKVLIYKVSNRFSGVPDRFSGSGSGTDFTLKISRVEAEDLGVYFCSQSTHVPWTFGGGTKLEIKRTVAAPSVFIFPPSDEQLKSGTASVVCLLNNFYPREAKVQWKVDNALQSGNSQESVTEQDSKDSTYSLSSTLTLSKADYEKHKVYACEVTHQGLSSPVTKSFNRGEC
